Biological target: Torpedo nicotinic acetylcholine receptor (nAChR-enriched membranes) (Torpedo (species not stated)) (UniProt P02710)

Pichia-expressed, purified recombinant α-bungarotoxin (rBgtx) (from UniProt P60615 22-95) (ligand)
reduction in 125I-Bgtx bound: 45%

— patent publication US6753315
